Measured values taken from patent publication US20160243230A1.

Molecular target: Vκ4Len(1-22) peptide, P06312
Assay: EuLISA, peptide dried on the plate, 11-1F4 titrated from 100 nM

B1: murine 11-1F4 monoclonal antibody (antibody)
chain 1: QVQLKESGPGLVAPSQSLSITCTVSGFSLSSYGVSWVRQPPGKGLEWLGVIWGDGSTNYHPNLMSRLSISKDISKSQVLFKLNSLQTDDTATYYCVTLDYWGQGTSVTVSS
chain 2: DVVMTQTPLSLPVSLGDQASISCRSSQSLVHRNGNTYLHWYLQKPGQSPKLLIYKVSNRFSGVPDRFSGSGSGTDFTLKISRVEAEDLGLYFCFQTTYVPNTFGGGTKLEIK
EC50: 0.5 nM
